Test results as given in the RNAGym collection of RNA variant scans (doi:10.7554/elife.80360).

B1: Hairpin Ribozyme (parent)
chain: GUCCUCUUUCACGUGCGCGUGAAAGAGAGAAGUGAACCAGAGAAACACACGUUGUGGUAUAUUACCUGGUA

Variants of: B1
Experiment: self-cleavage, relative activity (ratio to wild type); higher = more cleavage; co-transcriptional

Variant | self-cleavage
U14G A24U | 0.653
U14G G15U | 0.796
U14A A61U | 0.266
U14A A61G | 0.101
U14G A49G | 0.386
U14C U58C | 0.78
U14C U58A | 0.763
U14G U53G | 0.287
U14C G32A | 0.0498
U14G A41C | 0.698
U14G C16A | 0.681
U14C G19U | 0.88
U14C G19C | 0.79
U14G G25A | 0.384
U14A G29U | 0.206
U14A G29C | 0.168
U14C A71U | 0.87
U14A G69A | 0.219
U14C A59U | 0.081
U14C A59G | 0.0434
U14A A45C | 0.21
U14A A45U | 0.116
U14A A26G | 0.575
U14G G69U | 0.2

Variant | self-cleavage
U14G C37U | 0.547
U14A A31G | 0.52
U14A A31C | 0.391
U14A G57A | 0.139
U14A U60G | 0.614
U14G A30C | 0.129
U14C G29C | 0.17
U14C U20A | 0.774
U14C U20G | 1.09
U14C U20C | 1.03
U14C A23G | 0.841
G13U U55G | 0.124
U14C C50G | 0.268
U14C U52G | 0.512
U14C U52A | 1.03
U14C C38A | 0.0751
U14A U33G | 0.207
U14A U33C | 0.153
U14A U33A | 0.137
U14C G21U | 0.702
U14C C37U | 0.376
U14G A71C | 1.11
U14G A71G | 0.883
U14C G69U | 0.3

Variant | self-cleavage
U14G A39G | 0.227
U14C C16U | 0.728
U14G A43C | 0.0921
U14C G17A | 0.861
U14C G17U | 1.24
U14G G57A | 0.146
U14C U33A | 0.0608
U14C A35U | 0.713
U14C A35G | 0.953
U14C A28C | 0.565
U14A U53A | 1.12
U14A G40U | 0.127
U14A G40C | 0.187
U14A G40A | 0.317
U14G C65A | 1.05
U14G C38A | 0.17
U14G C38U | 0.345
U14C C18A | 0.933
U14C C18U | 0.868
U14G A44G | 0.0802
U14G A44C | 0.218
U14A G34C | 1.19
U14A G34A | 1.31
U14C A47U | 0.112

Variant | self-cleavage
U14C A47C | 0.484
U14A G32C | 0.157
U14G G19U | 0.893
U14C G68C | 0.212
G13U U58G | 0.645
U14A C18G | 0.636
U14A C18A | 0.888
U14C C65A | 0.93
U14C C65G | 0.214
U14G C66U | 0.217
U14G C66G | 0.173
U14A C65A | 0.958
G13U U70C | 0.784
G13U U70G | 0.78
U14A C16A | 0.849
U14A C16G | 0.594
U14A C16U | 0.813
U14C G57U | 0.265
U14G G42U | 0.163
U14G A45C | 0.243
U14C A31C | 0.0434
U14C A31U | 0.0592
G13U U52A | 0.83
U14A C50G | 0.279

Variant | self-cleavage
G13U U14G | 0.729
G13U U14A | 0.88
U14G G56U | 0.122
U14C C46U | 0.078
U14C C46A | 0.174
U14C C46G | 0.0498
U14A U52G | 0.494
U14A U52C | 0.788
U14G A36U | 0.311
U14G G21C | 0.342
U14G G21A | 0.686
U14C G15C | 0.932
U14C G15U | 0.926
U14C G15A | 0.825
U14G U20G | 0.736
U14G G68C | 0.0739
U14A C66U | 0.335
U14A C37A | 0.378
U14C C66G | 0.337
U14C C66U | 0.408
U14G G34U | 1.11
G13U U63C | 0.181
G13U U63A | 0.103
U14G C48U | 0.0482

Variant | self-cleavage
G13U U20G | 0.815
U14G A47C | 0.218
U14G A31G | 0.693
U14C A49C | 0.162
U14C A49U | 0.134
G13U U67A | 0.257
U14C U63C | 0.392
U14C U63A | 0
U14A G21U | 0.795
U14A G21A | 0.936
U14C C48G | 0.26
U14C G27U | 0.102
U14A A24G | 0.938
U14C U70A | 0.814
U14C A43C | 0.114
U14C A43U | 0.094
U14C A43G | 0.147
U14C U60A | 0.795
U14C U55C | 0.483
U14C U55A | 0.271
U14C U55G | 0.352
U14C A22U | 1.06
U14C A22C | 0.832
U14G G17U | 0.513

Variant | self-cleavage
U14G G17C | 0.415
G13U U60G | 0.404
G13U U60C | 0.902
G13U U60A | 0.696
U14C A39G | 0.243
U14C A39C | 0.475
G13U U53G | 0.716
U14A A43G | 0.147
U14G A64U | 0.07
U14A U63G | 0.0901
U14A A44C | 0.14
U14A A44G | 0.189
U14C G42A | 0.154
U14C G42C | 0.403
U14C G42U | 0.365
U14G G27C | 0.0943
U14A A28U | 0.574
U14C A44G | 0.155
U14A U70C | 1.01
U14A U70G | 0.714
U14A C38U | 0.478
U14A A59U | 0.28
U14G G51A | 0.989
